From patent US20070184522A1, “Cell death modulation via antagonists of Fasl and Fas activation” (University of Pittsburgh of the Commonwealth System of …, priority 2004, published 2007) come the findings set out here.

“Also recorded” adds a separate entry of the source.

Assay [1] has as its system Fas capping in Hepa 1-6 cells. Kind of assay: Fas capping of fluorescent protein tagged Fas in Hepa 1-6 cells. The conditions noted are these: for FasL-induced Fas capping: Hepa 1-6, FasL 1 μg/ml, AlphaMet 5 μg/ml or YLGA 12 mer 1 μg/ml, 30 minutes; for Jo2-induced Fas capping/clustering: Hepa 1-6, Jo2 100 ng/ml. The format is cell-based. As for the experimental part: FIG. 3a presents data collected from Jurkat cells (1×10^6) treated with 2 μg/ml of Fas Ligand with or without AlphaMet for 30 minutes on ice. Cells were washed with PBS twice and then incubated with 2 mM of DTSSP in PBS for 30 minutes. The crosslinking process was stopped by 20 mM of Tris (pH 7.5) for another 30 minutes. Cells were spun down and washed with PBS twice and lyzed in RIPA buffer. Cell lysates were subjected to SDS-PAGE under non-reducing or reducing conditions (FIG. 3b) and Western blot analysis using the mouse monoclonal antibody against human Fas. FIG. 3c depicts the quantification of the data in FIG. 3a by densitometry. The data are the mean and SE from three different independent crosslinking and Western blot experiments. […] Frame A: Acceptor CFP-Fas image; Frame B: Acceptor pre-bleach CFP-Fas image; Frame C: Acceptor post-bleach image. Frame D: Donor YFP-Fas image; Frame E: Donor pre-bleach image; Frame F: […]. The CFP-Fas strength in the selected region obtained a gain of 19.3% efficiency in the presence of FasL for 15 minutes. No FRET was observed without FasL. […] FIG. 3e depicts the results of experiments in which CFP-tagged Fas or CFP control vector were transiently expressed in Hepa 1-6 Cells (3×10^5). Cells were treated with 1 μg/ml of Fas ligand or 100 ng/ml of Jo2 with or without 5 μg/ml of AlphaMet or 1 μg/ml of YLGA 12 mer for 30 minutes on ice. Cells were fixed and analyzed by fluorescence microscopy. Frame A: AlphaMet treatment only, no FasL; Frame B: Fas ligand treatment only; Frame C: Fas ligand and AlphaMet treatment; Frame D: Fas ligand and 12 mer YLGA; Frame E: Jo2 treatment only and Frame F: Jo2 and AlphaMet treatment.
Fluorescence protein tagged Fas molecules and Hepa 1-6 cells were used for these experiments. These cells were transiently co-transfected with CFP and YFP chimeric Fas expression vectors using the lipofectamine 2000 method (Invitrogen). After 24 hours of transfection, about 50% of the cells were fluorescing. The cells were treated by Fas-ligand in the presence or absence of AlphaMet for 30 minutes. Treated cells were then fixed with cold methanol and subjected to FRET analysis. Cells were considered positive if FRET efficiency was over 10%. FRET phenomenon was observed only in cells that were treated with Fas-ligand. […] In these experiments the percent of Fas capping was also determined.

Assay [2] has as its system Fas self-assembly in Hepa 1-6 cells. In words: FRET assay of CFP-Fas/YFP-Fas in transfected Hepa 1-6 cells. The format is cell-based. The following applies: Hepa 1-6 cells, CFP-Fas and YFP-Fas, FasL with AlphaMet. As for the experimental part:
FIG. 3a presents data collected from Jurkat cells (1×10^6) treated with 2 μg/ml of Fas Ligand with or without AlphaMet for 30 minutes on ice. Cells were washed with PBS twice and then incubated with 2 mM of DTSSP in PBS for 30 minutes. The crosslinking process was stopped by 20 mM of Tris (pH 7.5) for another 30 minutes. Cells were spun down and washed with PBS twice and lyzed in RIPA buffer. Cell lysates were subjected to SDS-PAGE under non-reducing or reducing conditions (FIG. 3b) and Western blot analysis using the mouse monoclonal antibody against human Fas. FIG. 3c depicts the quantification of the data in FIG. 3a by densitometry. The data are the mean and SE from three different independent crosslinking and Western blot experiments. […] Frame A: Acceptor CFP-Fas image; Frame B: Acceptor pre-bleach CFP-Fas image; Frame C: Acceptor post-bleach image. Frame D: Donor YFP-Fas image; Frame E: Donor pre-bleach image; Frame F: Donor pre-bleach image. […] Cells were fixed and analyzed by fluorescence microscopy. […]
FRET assay. […] Fret efficiency (E) was calculated as FRETeff=(Dpost−Dpre)/Dpost (Dpost and Dpre are the mean emission intensity […] YFP bleaching).
Fluorescence protein tagged Fas molecules and Hepa 1-6 cells were used for these experiments. […] In these experiments the percent of Fas capping was also determined.

Assay [3] deals with Caspase 3 activation in Jurkat cells. In words: Cleaved Caspase 3 Western blot in apoptotic Jurkat cells. The format is cell-based, human. The conditions noted are these: Fas-ligand. On the procedure: (§1) For FIG. 4a, Jurkat cells (1.5×10^5) were overnight treated in triplicate with 5 ng/ml of crosslinked human Fas ligand with or without 5 μg/ml of recombinant AlphaMet or 1 μg/ml of the indicated polypeptides. Percent apoptosis was determined by Trypan Blue staining using a hemocytometer. The data are representative and were repeated at least four times. […] The 17 kDa fragment of cleaved Caspase 3 is visualized by this antibody. The blot was reprobed for β-actin as a loading control. For FIG. 4c, serum deprived Hepa 1-6 cells (3×10^5) were overnight treated with 1 μg/ml of crosslinked mouse Fas ligand with or without AlphaMet or the indicated polypeptide. Media were collected and centrifuged to pellet the dead cells. […] The data in FIG. 4c represents three independent experiments.
To provide biochemical evidence that AlphaMet inhibited FasL-mediated apoptosis, the activation of Caspase 3, a down stream executioner in Fas mediated apoptosis, was analyzed in apoptotic Jurkat cells.

Assay [4] concerns caspase-3 activation in Hepa 1-6 cells. Kind of assay: Cleaved Caspase 3 in apoptotic Hepa 1-6 cell lysates. The assay is classed as cell-based, mouse. On the procedure: as §1

Fas self-assembly in Hepa 1-6 cells, sequence (P25445 26-190 limits assumed): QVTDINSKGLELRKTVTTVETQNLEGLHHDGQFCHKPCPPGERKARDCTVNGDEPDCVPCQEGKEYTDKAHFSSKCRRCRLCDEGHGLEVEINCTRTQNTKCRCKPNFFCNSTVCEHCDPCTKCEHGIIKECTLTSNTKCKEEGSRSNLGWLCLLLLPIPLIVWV

Turning to HHIYLGATNYIY [12 mer], in assay [1], the “FasL-induced Fas capping” value is “inhibited to the background level” and the “Jo2-induced Fas capping/clustering” value is reported as “reduced Jo2-induced Fas capping”.

B1: alpha subunit of Met (AlphaMet), amino acid residues 1 to 306, His-tagged (receptor, mouse)
chain: MKAPTVLAPGILVLLLSLVQRSHGECKEALVKSEMNVNMKYQLPNFTAETPIQNVVLHGHHIYLGATNYIYVLNDKDLQKVSEFKTGPVLEHPDCLPCRDCSSKANSSGGVWKDNINMALLVDTYYDDQLISCGSVNRGTCQRHVLPPDNSADIQSEVHCMFSPEEESGQCPDCVVSALGAKVLLSEKDRFINFFVGNTINSSYPPGYSLHSISVRRLKETQDGFKFLTDQSYIDVLPEFLDSYPIKYIHAFESNHFIYFLTVQKETLDAQTFHTRIIRFCSVDSGLHSYMEMPLECILTEKRRKRHHHHHH
Take B1: the “FasL-induced FRET” value in assay [2] is “no significant FRET could be detected; also recorded: inhibited the FasL-induced FRET phenomenon”. Moreover, the “Caspase 3 activation (17 kDa cleaved form)” value in assay [3] is given as “markedly reduced”. In addition, in assay [4], the “Activation of caspase-3” value is reported as “also inhibited by the wild type”. Further, in assay [1], the “FasL-induced Fas capping” value is “inhibited to the background level” and the “Jo2-induced Fas capping/clustering” value is “also inhibited; also recorded: reduced Jo2-induced Fas capping”.
